Patent publication US20200087363A1 (IMMATICS BIOTECHNOLOGIES, published 2020)

Biological target: T1, HLA-B*44:05 (human)
T1 construct: also called peptide-receptive MHC class I molecule
Experiment: UV peptide exchange, anti-b2m ELISA
In short: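 Peptide-receptive HLA-B*44:05 monomers after UV-induced exchange were diluted 100-fold and captured on streptavidin-coated plates for 1 h at 37 °C. Bound complexes were detected with 2 µg/ml HRP-anti-β2m (1 h, 37 °C) and TMB, read at 450 nm. β2m signal reflects peptide-stabilized complex yield.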

| Binder | peptide exchange yield [%] |
| --- | --- |
| AETEEGIYW | > 75 |
| LEQASRIWSW | > 75 |
| DEIRVFGY | 20 to 50 |
| AELMDKPLTF | 50 to 75 |
| EEGRVYVY | 20 to 50 |
| GELAPSHGL | 50 to 75 |
| IEQGRVVLW | > 75 |
| HELESENKKW | 50 to 75 |
| LEWQHPSSW | > 75 |
| EEIENLQAQF | 20 to 50 |
| AEYQAAILHL | 50 to 75 |
| KELEATKQYL | 50 to 75 |
| EEMLENVSL | 50 to 75 |
| LEWQNSSSM | 50 to 75 |
| AEMKFYVVI | 50 to 75 |
| LENPHVQSV | 50 to 75 |

Now from value to binder:

| peptide exchange yield [%] | Binder |
| --- | --- |
| 20 to 50 | TEAVLNRY |
| > 75 | RELVHMINW |
| 20 to 50 | SETSTGTSV |
| 20 to 50 | SEGTLPYSY |
| 50 to 75 | TEIMEKTTL |
| 20 to 50 | SENKKWVEF |
| 50 to 75 | NEVKEIKGY |
| > 75 | SEADWLRFW |
| > 75 | SEFDLEQVW |
| > 75 | SEVLLTSISTF |
| 50 to 75 | SETPTLQGL |
| 50 to 75 | VEVIPEGAML |
| > 75 | QEVNISLHY |
| 50 to 75 | QEDELVKIRKY |
